In experiment [1] the target is recombinant CD81 large extracellular loop (CD81-LEL). Briefly: peptide or protein array; sandwich analysis on a 3-D biochip: CD81-LEL immobilised (300 pg/spot); E2-GFP or VMPs at 1500 ng/mL, 2 h, 37 °C; then Cy3-labelled polyclonal anti-E2 antibodies (1000 ng/mL, 3 h) for detection; 0.01 M PBS pH 7.4 or spiked human blood plasma.
For experiment [2] the target is unchanged. Briefly: peptide or protein array; direct analysis on a 3-D biochip: CD81-LEL covalently immobilised in spots (300 pg/spot) on macroporous P(GMA-co-DEGDMA), blocked with BSA; E2-GFP or VMPs in solution, 0.01 M PBS pH 7.4 (VMPs also in spiked human blood plasma), 2 h, 37 °C; GFP fluorescence read; apparent dissociation constants from adsorption isotherms linearised in double reciprocal coordinates.

Consider “hepatitis C virus-mimetic particles (HC VMPs): PLA-b-PEG nanoparticles bearing E2-GFP on their surface”, for which the values for the decrease in relative signal intensity against free E2 in experiment [1] and in experiment [2] were 45 to 48% and 40%, respectively. Also, the Kd in experiment [2] is 26.3 nM.

In the case of “chimeric protein E2-superfolder GFP (HCV E2 core, 412-645 aa) (domain or fragment)”, the Kd in experiment [2] was 11.6 nM.

The values above are taken from paper PMC7249126.
